{"source": "paper PMC12239786", "about": "“SARS-CoV-2 RNA-binding protein suppresses extracellular miRNA release”", "binders": {"B1": {"name": "let-7b-Cy3 (ssRNA)", "RNA": "UGAGGUAGUAGGUUGUGUGGUU", "modifications": "5' phosphate"}, "B2": {"name": "let-7b-biotin (ssRNA)", "RNA": "UGAGGUAGUAGGUUGUGUGGUU"}, "B3": {"name": "miR-130b-Cy3 (ssRNA)", "RNA": "CAGUGCAAUGAUGAAAGGGCAU", "modifications": "5' phosphate"}, "B4": {"name": "mutant let-7b-Cy3 (ssRNA)", "RNA": "UGAGGUAGUAGGUUGCCAUUAU", "modifications": "5' phosphate"}, "B5": {"name": "miR-21-Cy3 (ssRNA)", "RNA": "UAGCUUAUCAGACUGAUGUUGA", "modifications": "5' phosphate"}}, "key": {"His-Nsp9": {"biological_target": "His-Nsp9 (SARS-CoV-2, UniProt P0DTD1 4141-4253)", "assay": "fluorescence polarization; 100 nM RNA; FP: 20 mM HEPES pH 7.0, 150 mM NaCl, 2 mM MgCl2, 10 mM DTT, 1 U/ul RiboLock, 5 min at room temperature; NMR: 20 mM HEPES pH 7.0, 15 mM NaCl, 0.5 mM TCEP, 0.02%", "conditions": "protein: recombinant; tags: His; chain copies: 2; label: 3' Cy3"}, "[1]": {"biological_target": "NCL (RNA-binding domain on protein array) (human, UniProt P19338 307-647)", "sequence (P19338 307-647)": "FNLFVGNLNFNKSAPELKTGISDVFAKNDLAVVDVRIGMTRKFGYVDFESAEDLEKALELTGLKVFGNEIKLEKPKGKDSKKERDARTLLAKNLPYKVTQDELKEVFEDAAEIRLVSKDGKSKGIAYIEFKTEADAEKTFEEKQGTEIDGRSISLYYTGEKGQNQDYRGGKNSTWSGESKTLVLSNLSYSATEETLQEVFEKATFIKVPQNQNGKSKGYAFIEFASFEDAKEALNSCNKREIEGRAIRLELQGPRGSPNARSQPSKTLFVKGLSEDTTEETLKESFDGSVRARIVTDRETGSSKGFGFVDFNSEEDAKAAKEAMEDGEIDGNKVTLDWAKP", "assay": "protein microarray; FP: 20 mM HEPES pH 7.0, 150 mM NaCl, 2 mM MgCl2, 10 mM DTT, 1 U/ul RiboLock, 5 min at room temperature; NMR: 20 mM HEPES pH 7.0, 15 mM NaCl, 0.5 mM TCEP, 0.02%", "conditions": "protein: recombinant; label: 5' biotin"}, "[2]": {"biological_target": "AUF1 (RNA-binding domain on protein array) (human, UniProt Q14103 97-261)", "sequence (Q14103 97-261)": "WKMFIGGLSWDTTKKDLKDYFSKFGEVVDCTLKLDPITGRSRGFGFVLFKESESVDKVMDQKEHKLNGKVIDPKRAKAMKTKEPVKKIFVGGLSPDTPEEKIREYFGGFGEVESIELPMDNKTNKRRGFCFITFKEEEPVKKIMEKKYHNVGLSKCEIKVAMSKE", "assay": "protein microarray; FP: 20 mM HEPES pH 7.0, 150 mM NaCl, 2 mM MgCl2, 10 mM DTT, 1 U/ul RiboLock, 5 min at room temperature; NMR: 20 mM HEPES pH 7.0, 15 mM NaCl, 0.5 mM TCEP, 0.02%", "conditions": "protein: recombinant; label: 5' biotin"}}}
{"binder": "B1", "values": [{"measurement": "Kd", "setting": "His-Nsp9", "value": "~15", "unit": "nM"}]}
{"binder": "B2", "values": [{"measurement": "binding result", "setting": "[1]", "value": "binds"}, {"measurement": "binding result", "setting": "[2]", "value": "binds"}]}
{"binder": "B3", "values": [{"measurement": "Kd", "setting": "His-Nsp9", "value": "~63", "unit": "nM"}]}
{"binder": "B4", "values": [{"measurement": "binding result", "setting": "His-Nsp9", "value": "no binding"}]}
{"binder": "B5", "values": [{"measurement": "binding result", "setting": "His-Nsp9", "value": "no binding"}]}
